In patent publication US20260250363A1 (AP BIOSCIENCES, published 2026):
Read-outs that look alike come from different tables or passages of the source.

Experiments:
[1] = molecular target: T1, SARS-CoV-2 B.1.617.2 Spike Protein (R&D, Cat. #10878-CV) (SARS-CoV-2, UniProt P0DTC2 16-1211); assay: competition ELISA: blocks biotin-ACE2 binding to coated spike
[2] = molecular target: T2, SARS-CoV-2 C.37 Spike His Protein (R&D, Cat. #10887-CV) (SARS-CoV-2, UniProt P0DTC2 16-1211)
[3] = molecular target: T3, SARS-CoV-2 AY.1 Spike Protein (R&D, Cat. #10922-CV) (SARS-CoV-2, UniProt P0DTC2 16-1211); assay: competition ELISA: blocks biotin-ACE2 binding to coated spike
[4] = molecular target: T1, SARS-CoV-2 B.1.617.2 Spike Protein …; assay: BLI (ForteBio), mAb on AHC sensor, spike in solution
[5] = molecular target: T4, SARS-CoV-2 B.1.1.529 Spike Protein (Omicron) (SARS-CoV-2, UniProt P0DTC2 16-1211); assay: as above
[6] = molecular target: Recombinant SARS-CoV-2 BA.2 Spike (GCN4-IZ) His Protein, CF (R&D, 11109-CV) (SARS-CoV-2, UniProt P0DTC2 16-1211); assay: as above
[7] = molecular target: T5, SARS-CoV-2 Spike Protein, wild type (R&D, Cat. #10549-CV) (SARS-CoV-2, UniProt P0DTC2 16-1211); assay: as above
[8] = molecular target: SARS-CoV-2 Spike Trimer, His Tag (BA.4/Omicron) (MALS verified) (AcroBiosystems, SPN-C5229) (SARS-CoV-2, UniProt P0DTC2 16-1213); assay: as above
[9] = molecular target: T3, SARS-CoV-2 AY.1 Spike Protein (R&D, …); assay: as above
[10] = molecular target: T2, SARS-CoV-2 C.37 Spike His Protein (R&D, …); assay: as above
[11] = molecular target: SARS-CoV-2 Spike Trimer, His Tag (BA.5/Omicron) (MALS verified) (AcroBiosystems, SPN-C522e) (SARS-CoV-2, UniProt P0DTC2 16-1213); assay: as above
[12] = molecular target: T1, SARS-CoV-2 B.1.617.2 Spike Protein …; assay: direct ELISA on coated spike
[13] = molecular target: T2, SARS-CoV-2 C.37 Spike His Protein (R&D, …); assay: direct ELISA on coated spike
[14] = molecular target: T4, SARS-CoV-2 B.1.1.529 Spike Protein …; assay: competition ELISA: blocks biotin-ACE2 binding to coated spike
[15] = molecular target: T5, SARS-CoV-2 Spike Protein, wild type …; assay: direct ELISA on coated spike
[16] = molecular target: T4, SARS-CoV-2 B.1.1.529 Spike Protein …; assay: direct ELISA on coated spike
[17] = molecular target: T5, SARS-CoV-2 Spike Protein, wild type …
[18] = molecular target: T3, SARS-CoV-2 AY.1 Spike Protein (R&D, …); assay: direct ELISA on coated spike
[19] = molecular target: T6, SARS-CoV-2 C.37 Spike His Protein (R&D, Cat. #10887-CV) (SARS-CoV-2, UniProt P0DTC2 16-1211); assay: competition ELISA: blocks biotin-ACE2 binding to coated spike
[20] = molecular target: T7, SARS-CoV-2 Spike Protein, wild type (R&D, Cat. #10549-CV) (SARS-CoV-2, UniProt P0DTC2 16-1211); assay: as above
[21] = molecular target: T8, SARS-CoV-2 AY.1 Spike Protein (R&D, Cat. #10922-CV) (SARS-CoV-2, UniProt P0DTC2 16-1211); assay: as above; remark: listed apart in the source
[22] = molecular target: T7, SARS-CoV-2 Spike Protein, wild type …; assay: BLI (ForteBio), mAb on AHC sensor, spike in solution; remark: listed apart in the source
[23] = molecular target: T6, SARS-CoV-2 C.37 Spike His Protein (R&D, …); assay: as above; remark: listed apart in the source
[24] = molecular target: T8, SARS-CoV-2 AY.1 Spike Protein (R&D, …); assay: as above; remark: listed apart in the source
[25] = molecular target: T6, SARS-CoV-2 C.37 Spike His Protein (R&D, …); assay: competition ELISA: blocks biotin-ACE2 binding to coated spike; remark: listed apart in the source
[26] = molecular target: T6, SARS-CoV-2 C.37 Spike His Protein (R&D, …); assay: direct ELISA on coated spike; remark: listed apart in the source
[27] = molecular target: T7, SARS-CoV-2 Spike Protein, wild type …; assay: direct ELISA on coated spike; remark: listed apart in the source
[28] = molecular target: T7, SARS-CoV-2 Spike Protein, wild type …; assay: competition ELISA: blocks biotin-ACE2 binding to coated spike; remark: listed apart in the source
[29] = molecular target: T8, SARS-CoV-2 AY.1 Spike Protein (R&D, …); assay: as above; remark: listed apart in the source
[30] = molecular target: T8, SARS-CoV-2 AY.1 Spike Protein (R&D, …); assay: direct ELISA on coated spike; remark: listed apart in the source
[31] = molecular target: T4, SARS-CoV-2 B.1.1.529 Spike Protein …; assay: direct ELISA on coated spike, single dose (axis label 30nm)

B1: anti-SARS-CoV-2 antibody clone R4-1a-10 (antibody, V domains shown)
VH: QVQLQQWGAGLLKPSETLSLTCAVYGGSFSGNYWSWIRQPPGKGLEWIGEINHSGSTNYNPSLKSRVTISVDTSKNQFSLKLSSVTAADTAVYYCARGLLDYWGQGTLVTVSS
VL: QSVLTQPSSVSAAPWQRVTISCSGSDSNIGNNPVNWYQHVPGKAPTLLIYYDNFLASKISDRFSGSKSGTSASLAISGLQSDDEADYYCASWDDSLNGVVFGGGTKLTVLR
IC50 [1]: 2.12 nM | IC50 [2]: 73.8 nM | IC50 [3]: 0.738 nM | Kd [4]: 2.34 nM | Kd [5]: 0.571 nM | Kd [6]: 3.23 nM | Kd [7]: 1.87 nM | Kd [8]: 6.86 nM | Kd [9]: 1.79 nM | Kd [10]: 1.01 nM | Kd [11]: 7.86 nM | EC50 [12]: 0.0369 nM | EC50 [13]: 1.99 nM | IC50 [14]: 1.86 nM | EC50 [15]: 0.479 nM | EC50 [16]: 0.0806 nM | IC50 [17]: 77 nM | EC50 [18]: 0.0407 nM

B2: Imdevimab (antibody, V domains shown)
VH: QVQLVESGGGVVQPGRSLRLSCAASGFTFSNYAMYWVRQAPGKGLEWVAVISYDGSNKYYADSVKGRFTISRDNSKNTLYLQMNSLRTEDTAVYYCASGSDYGDYLLVYWGQGTLVTVSS
VL: QSALTQPASVSGSPGQSITISCTGTSSDVGGYNYVSWYQQHPGKAPKLMIYDVSKRPSGVSNRFSGSKSGNTASLTISGLQSEDEADYYCNSLTSISTWVFGGGTKLTVLG
IC50 [19]: 3.25 nM | IC50 [20]: 4.82 nM | IC50 [21]: 1.18 nM | Kd [22]: 2.32 nM | Kd [23]: 0.563 nM | Kd [24]: 0.305 nM | IC50 [25]: 3.77 nM | EC50 [26]: 0.0734 nM | EC50 [27]: 0.0681 nM | IC50 [28]: 4.85 nM | IC50 [29]: 0.697 nM | EC50 [30]: 0.0642 nM

B3: anti-SARS-CoV-2 antibody clone R3-1a-1 (antibody, V domains shown)
VH: QVQLVQSGAEVKKPGSSVKVSCKASGGTFSSYAISWVRQAPGQGLEWMGGIIPILGIANYAQKFQGRVTITADKSTSTAYMELSSLRSEDTAVYYCARDGGGSSGYHDYWGQGTLVTVSS
VL: NFMLTQPHSVSESPGKTVTISCTRSSGSIASKYVQWYQQRPGNSPTTVIYEDDQRPSGVPDRFSASIDSSANTASLTISGLKPEDEADYYCQSYDDNTAVFGGGTHLTVLG
Kd [6]: 4.36 nM | Kd [8]: 10.3 nM | Kd [11]: 12.5 nM | binding result [31]: no binding (tested: 30 nM (printed 30nm))
